Reference: paper PMC5068848

T1: PBF (prolamin-box binding factor) (Zea mays, UniProt O24463 1-328)
T1 sequence: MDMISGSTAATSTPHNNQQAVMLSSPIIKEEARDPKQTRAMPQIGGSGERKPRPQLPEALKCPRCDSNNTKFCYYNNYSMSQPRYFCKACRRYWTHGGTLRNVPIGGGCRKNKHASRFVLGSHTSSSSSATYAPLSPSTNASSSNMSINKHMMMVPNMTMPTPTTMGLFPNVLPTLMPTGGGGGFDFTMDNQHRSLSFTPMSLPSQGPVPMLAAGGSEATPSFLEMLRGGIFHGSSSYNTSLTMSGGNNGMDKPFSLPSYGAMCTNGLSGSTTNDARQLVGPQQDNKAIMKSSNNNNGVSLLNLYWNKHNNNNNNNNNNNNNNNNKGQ

B1: z1B-P2 (dsDNA)
DNA 1: CAAAGCCAACTAGATACCACATCATCTCTAGCTTATCTTA
DNA 2: TAAGATAAGCTAGAGATGATGTGGTATCTAGTTGGCTTTG
B2: z1C O2-box (dsDNA)
DNA 1: GAGATCTTGCATGTCATTCCACGTAGATAAAAAGAATGCATATATA
DNA 2: TATATATGCATTCTTTTTATCTACGTGGAATGACATGCAAGATCTC
B3: z1C P-box (dsDNA)
DNA 1: TCATGTTAATGTTGTCACATGTGTAAAGGTGAAGAGATCTTGCATGT
DNA 2: ACATGCAAGATCTCTTCACCTTTACACATGTGACAACATTAACATGA
B4: z1B-P3 (dsDNA)
DNA 1: AACTCAATCTACATAAGCACAAGGTCTAACATGTGTATAA
DNA 2: TTATACACATGTTAGACCTTGTGCTTATGTAGATTGAGTT
B5: z1A P box (dsDNA)
DNA 1: GGCTATCGTTACACATGTGTAAAGGTATTGCATCACACCATT
DNA 2: AATGGTGTGATGCAATACCTTTACACATGTGTAACGATAGCC
B6: z1D-P1 (dsDNA)
DNA 1: TTTTGTGCAAATTGTTTTGTCGACATATAAAGTGTAAGATAAGAAA
DNA 2: TTTCTTATCTTACACTTTATATGTCGACAAAACAATTTGCACAAAA
B7: z1A O2-like box (dsDNA)
DNA 1: ATCAAGTTTGTCTTGCTTACGTATAAATTATAACCCAACA
DNA 2: TGTTGGGTTATAATTTATACGTAAGCAAGACAAACTTGAT

Assays:
OHP1 = OHP1 (Zea mays, UniProt Q03462 1-405); assay: EMSA
[1] = target: T1, PBF (prolamin-box binding factor); assay: EMSA

Row | Binder | binding result (OHP1) | binding result [1]
1 | B1 | binds | 
2 | B2 | binds | 
3 | B3 |  | binds
4 | B4 | binds | 
5 | B5 |  | binds
6 | B6 | binds | 
7 | B7 | binds | 
